# Laboratory results taken from FireProtDB (doi:10.1016/0141-8130(95)93517-2).
# B1: Peroxidase C2 wild type, P17179 (protein)
# chain: MHSSSSLIKLGFLLLLLNVSLSHAQLSPSFYDKTCPQVFDIATNTIKTALRSDPRIAASILRLHFHDCFVNGCDASILLDNTTSFRTEKDAFGNARSARGFDVIDTMKAAVEKACPKTVSCADLLAIAAQKSVVLAGGPSWKVPSGRRDSLRGFMDLANDNLPGPSSTLQVLKDKFRNVGLDRPSDLVALSGGHTFGKNQCQFIMDRLYNFSNSGKPDPTLDKSYLSTLRKQCPRNGNLSVLVDFDLRTPTIFDNKYYVNLKENKGLIQSDQELFSSPDASDTIPLVRAYADGQGKFFDAFVEAMIRMGNLSPSTGKQGEIRLNCRVVNSKPKIMDVVDTNDFASSI
# Conditions: Armoracia rusticana, CD, reversible: yes, whole UniProt chain shown
# [1] = pH 3.2, 22 °C, GdnHCl, glycine 50 mM
# [2] = pH 3.2, 22 °C, Urea, glycine 50 mM
# [3] = pH 3.2, 25 °C, GdnHCl, glycine 50 mM
# [4] = pH 3.2, 25 °C, Urea, glycine 50 mM
# [5] = pH 3.2, 27 °C, GdnHCl, glycine 50 mM
# [6] = pH 3.2, 27 °C, Urea, glycine 50 mM
# [7] = pH 3.2, 30 °C, GdnHCl, glycine 50 mM
# [8] = pH 3.2, 30 °C, Urea, glycine 50 mM
# [9] = pH 6.4, 22 °C, GdnHCl, sodium phosphate 2.5 mM
# [10] = pH 6.4, 22 °C, Urea, sodium phosphate 2.5 mM
# [11] = pH 6.4, 25 °C, GdnHCl, sodium phosphate 2.5 mM
# [12] = pH 6.4, 25 °C, Urea, sodium phosphate 2.5 mM
# [13] = pH 6.4, 27 °C, GdnHCl, sodium phosphate 2.5 mM
# [14] = pH 6.4, 27 °C, Urea, sodium phosphate 2.5 mM
# [15] = pH 6.4, 30 °C, GdnHCl, sodium phosphate 2.5 mM
# [16] = pH 6.4, 30 °C, Urea, sodium phosphate 2.5 mM
# [17] = pH 10, 22 °C, GdnHCl, glycine 50 mM
# [18] = pH 10, 22 °C, Urea, glycine 50 mM
# [19] = pH 10, 25 °C, GdnHCl, glycine 50 mM
# [20] = pH 10, 25 °C, Urea, glycine 50 mM
# [21] = pH 10, 27 °C, GdnHCl, glycine 50 mM
# [22] = pH 10, 27 °C, Urea, glycine 50 mM
# [23] = pH 10, 30 °C, GdnHCl, glycine 50 mM
# [24] = pH 10, 30 °C, Urea, glycine 50 mM
protein,measurement,setting,value
B1,denaturant m value,[1],2.86 kcal/mol/M
same,unfolding free energy,[1],6.75 kcal/mol
same,denaturant m value,[2],1.23 kcal/mol/M
same,unfolding free energy,[2],6.42 kcal/mol
same,denaturant m value,[3],2.94 kcal/mol/M
same,unfolding free energy,[3],6.25 kcal/mol
same,denaturant m value,[4],1.26 kcal/mol/M
same,unfolding free energy,[4],5.94 kcal/mol
same,denaturant m value,[5],2.99 kcal/mol/M
same,unfolding free energy,[5],5.68 kcal/mol
same,denaturant m value,[6],1.31 kcal/mol/M
same,unfolding free energy,[6],5.63 kcal/mol
same,denaturant m value,[7],3.2 kcal/mol/M
same,unfolding free energy,[7],4.98 kcal/mol
same,denaturant m value,[8],1.37 kcal/mol/M
same,unfolding free energy,[8],5.18 kcal/mol
same,denaturant m value,[9],4.75 kcal/mol/M
same,unfolding free energy,[9],6.68 kcal/mol
same,denaturant m value,[10],2.02 kcal/mol/M
same,unfolding free energy,[10],6.45 kcal/mol
same,denaturant m value,[11],4.9 kcal/mol/M
same,unfolding free energy,[11],6.38 kcal/mol
same,denaturant m value,[12],2.06 kcal/mol/M
same,unfolding free energy,[12],5.94 kcal/mol
same,denaturant m value,[13],5.08 kcal/mol/M
same,unfolding free energy,[13],6.22 kcal/mol
same,denaturant m value,[14],2.11 kcal/mol/M
same,unfolding free energy,[14],5.87 kcal/mol
same,denaturant m value,[15],5.16 kcal/mol/M
same,unfolding free energy,[15],5.62 kcal/mol
same,denaturant m value,[16],2.18 kcal/mol/M
same,unfolding free energy,[16],5.69 kcal/mol
same,denaturant m value,[17],2.85 kcal/mol/M
same,unfolding free energy,[17],6.7 kcal/mol
same,denaturant m value,[18],1.28 kcal/mol/M
same,unfolding free energy,[18],6.71 kcal/mol
same,denaturant m value,[19],2.99 kcal/mol/M
same,unfolding free energy,[19],6.4 kcal/mol
same,denaturant m value,[20],1.3 kcal/mol/M
same,unfolding free energy,[20],6.36 kcal/mol
same,denaturant m value,[21],3.11 kcal/mol/M
same,unfolding free energy,[21],5.87 kcal/mol
same,denaturant m value,[22],1.37 kcal/mol/M
same,unfolding free energy,[22],6.04 kcal/mol
same,denaturant m value,[23],3.17 kcal/mol/M
same,unfolding free energy,[23],5.23 kcal/mol
same,denaturant m value,[24],1.4 kcal/mol/M
same,unfolding free energy,[24],5.54 kcal/mol
